Here are results for four proteins from ChEMBL document CHEMBL1908105, “UDP-glucuronosyltransferases and clinical drug-drug interactions” (Pharmacol Ther, 2005).

Substrate in series [1]: CC(C)c1cccc(C(C)C)c1O
As to the kind of experiment: not read.

Substrate in series [2]: O=C(c1ccc(OCCN2CCCCC2)cc1)c1c(-c2ccc(O)cc2)sc2cc(O[C@@H]3O[C@H](C(=O)O)[C@@H](O)[C@H](O)[C@H]3O)ccc12
As to the kind of experiment: (§1) Drug glucuronidation reaction catalyzed by human recombinant UGT1A8.

Substrate in series [3]: O=C1CC[C@@]2(O)[C@H]3Cc4ccc(O)c5c4[C@@]2(CCN3CC2CC2)[C@H]1O5
The series is described as §1.

Substrate in series [4]: O=C(c1ccc(OCCN2CCCCC2)cc1)c1c(-c2ccc(O[C@H]3O[C@H](C(=O)O)[C@@H](O)[C@H](O)[C@H]3O)cc2)sc2cc(O)ccc12
The description is as §1.

Substrate in series [5]: CN1CC[C@]23c4c5ccc(O[C@@H]6O[C@H](C(=O)O)[C@@H](O)[C@H](O)[C@H]6O)c4O[C@H]2[C@@H](O)C=C[C@H]3[C@H]1C5
Described as §1.

Substrate in series [6]: COc1c(C)c2c(c(O)c1C/C=C(\C)CCC(=O)O)C(=O)OC2
The series is described as §1.

Substrate in series [7]: O=C1Nc2ccc(Cl)cc2C(c2ccccc2)=N[C@@H]1O
Put plainly: not read.

Substrate in series [8]: Cc1c(Cl)cccc1Nc1ncccc1C(=O)O
Put plainly: not read.

Substrate in series [9]: O=C1Nc2ccc(Cl)cc2C(c2ccccc2)=N[C@H]1O
As to the kind of experiment: not read.

Substrate in series [10]: CO[C@]12CC[C@@]3(C[C@@H]1[C@](C)(O)C(C)(C)C)[C@H]1Cc4ccc(O)c5c4[C@@]3(CCN1CC1CC1)[C@H]2O5
Put plainly: (§2) Drug glucuronidation reaction catalyzed by human recombinant UGT2B7.

Substrate in series [11]: C=CCN1CC[C@]23c4c5ccc(O)c4O[C@H]2[C@@H](O)C=C[C@H]3[C@H]1C5
The description is as §2.

Substrate in series [12]: NC(=O)N1c2ccccc2C=Cc2ccccc21
The series is described as §2.

Substrate in series [13]: C=CC[C@@H]1/C=C(\C)C[C@H](C)C[C@H](OC)[C@H]2O[C@@](O)(C(=O)C(=O)N3CCCC[C@H]3C(=O)O[C@H](/C(C)=C/[C@@H]3CC[C@@H](O)[C@H](OC)C3)[C@H](C)[C@@H](O)CC1=O)[C@H](C)C[C@@H]2OC
The series is described as §2.

Substrate in series [14]: COc1cccc2c1C(=O)c1c(O)c3c(c(O)c1C2=O)C[C@@](O)(C(=O)CO)C[C@@H]3O[C@H]1C[C@H](N)[C@@H](O)[C@H](C)O1
The description is as §2.

Substrate in series [15]: CS(=O)(=O)c1ccc(C2=C(c3ccccc3)C(=O)OC2O)cc1
The series is described as §2.

Substrate in series [16]: O=C1[C@H](CC[C@H](O)c2ccc(F)cc2)[C@@H](c2ccc(O)cc2)N1c1ccc(F)cc1
Described as §2.

Substrate in series [17]: CC(C)Cc1ccc(C(C)C(=O)O)cc1
The description is as §2.

Substrate in series [18]: CC(C(=O)O)c1cccc(C(=O)c2ccccc2)c1
Described as §2.

Substrate in series [19]: COc1ccc(Cl)cc1[C@]1(F)C(=O)Nc2cc(C(F)(F)F)ccc21
The description is as §2.

Substrate in series [20]: CCC[S+]([O-])CCCN(CC)CC(O)COc1ccc(C#N)cc1
Described as §2.

Substrate in series [21]: CN1CC[C@H](c2c(O)cc(O)c3c(=O)cc(-c4ccccc4Cl)oc23)[C@H](O)C1
Put plainly: (§3) Drug glucuronidation reaction catalyzed by human recombinant UGT1A9.

Substrate in series [22]: CCN(CC)C(=O)/C(C#N)=C/c1cc(O)c(O)c([N+](=O)[O-])c1
Described as §3.

Substrate in series [23]: O=C(c1ccc(OCCN2CCCCC2)cc1)c1c(-c2ccc(O)cc2)sc2cc(O[C@@H]3O[C@H](C(=O)O)[C@@H](O)[C@H](O)[C@H]3O)ccc12
The series is described as §3.

Substrate in series [24]: CC(=O)Nc1ccc(O)cc1
The series is described as §3.

Substrate in series [25]: O=C(c1ccc(OCCN2CCCCC2)cc1)c1c(-c2ccc(O[C@H]3O[C@H](C(=O)O)[C@@H](O)[C@H](O)[C@H]3O)cc2)sc2cc(O)ccc12
The series is described as §3.

Substrate in series [26]: Cc1ccc(C(=O)c2cc(O)c(O)c([N+](=O)[O-])c2)cc1
The series is described as §3.

Substrate in series [27]: CN1CC[C@]23c4c5ccc(O[C@@H]6O[C@H](C(=O)O)[C@@H](O)[C@H](O)[C@H]6O)c4O[C@H]2[C@@H](O)C=C[C@H]3[C@H]1C5
Described as §3.

Substrate in series [28]: CCc1c2c(nc3ccc(O)cc13)-c1cc3c(c(=O)n1C2)COC(=O)[C@]3(O)CC
The description is as §3.

Substrate in series [29]: CCC[S+]([O-])CCCN(CC)CC(O)COc1ccc(C#N)cc1
The series is described as §3.

Substrate in series [30]: COc1c(C)c2c(c(O)c1C/C=C(\C)CCC(=O)O)C(=O)OC2
The description is as §3.

Substrate in series [31]: O=C(c1ccc(OCCN2CCCCC2)cc1)c1c(-c2ccc(O[C@H]3O[C@H](C(=O)O)[C@@H](O)[C@H](O)[C@H]3O)cc2)sc2cc(O)ccc12
As to the kind of experiment: (§4) Drug glucuronidation reaction catalyzed by human recombinant UGT1A10.

Substrate in series [32]: CN1CC[C@]23c4c5ccc(O[C@@H]6O[C@H](C(=O)O)[C@@H](O)[C@H](O)[C@H]6O)c4O[C@H]2[C@@H](O)C=C[C@H]3[C@H]1C5
The description is as §4.

B1: UDP-glucuronosyltransferase 1A8 (Homo sapiens) (protein)
chain: MARTGWTSPIPLCVSLLLTCGFAEAGKLLVVPMDGSHWFTMQSVVEKLILRGHEVVVVMPEVSWQLGKSLNCTVKTYSTSYTLEDLDREFMDFADAQWKAQVRSLFSLFLSSSNGFFNLFFSHCRSLFNDRKLVEYLKESSFDAVFLDPFDACGLIVAKYFSLPSVVFARGIACHYLEEGAQCPAPLSYVPRILLGFSDAMTFKERVRNHIMHLEEHLFCQYFSKNALEIASEILQTPVTAYDLYSHTSIWLLRTDFVLDYPKPVMPNMIFIGGINCHQGKPLPMEFEAYINASGEHGIVVFSLGSMVSEIPEKKAMAIADALGKIPQTVLWRYTGTRPSNLANNTILVKWLPQNDLLGHPMTRAFITHAGSHGVYESICNGVPMVMMPLFGDQMDNAKRMETKGAGVTLNVLEMTSEDLENALKAVINDKSYKENIMRLSSLHKDRPVEPLDLAVFWVEFVMRHKGAPHLRPAAHDLTWYQYHSLDVIGFLLAVVLTVAFITFKCCAYGYRKCLGKKGRVKKAHKSKTH
As a reminder, the Km is the concentration of substrate that gives half-maximal velocity. As a reminder, the Vmax is the rate approached at saturating substrate. On to B1, for which the Michaelis constant (Km) in [1] was 412 µM; in [2] it was 8 µM; in series [3] it was 1550 µM; in series [4] it was 59 µM; in series [5] it was 26000 µM; in [6] it was 298 µM. The Vmax in series [1] worked out at 0.00382 µmol/min/mg; in series [2], 0.00061 µmol/min/mg; in series [3] it was 0.000495 µmol/min/mg; in series [4], 0.002 µmol/min/mg; in [5], 1.3e-05 µmol/min/mg; in series [6], 0.0326 µmol/min/mg.

B2: UDP-glucuronosyltransferase 2B7 (Homo sapiens) (protein)
chain: MSVKWTSVILLIQLSFCFSSGNCGKVLVWAAEYSHWMNIKTILDELIQRGHEVTVLASSASILFDPNNSSALKIEIYPTSLTKTELENFIMQQIKRWSDLPKDTFWLYFSQVQEIMSIFGDITRKFCKDVVSNKKFMKKVQESRFDVIFADAIFPCSELLAELFNIPFVYSLSFSPGYTFEKHSGGFIFPPSYVPVVMSELTDQMTFMERVKNMIYVLYFDFWFEIFDMKKWDQFYSEVLGRPTTLSETMGKADVWLIRNSWNFQFPYPLLPNVDFVGGLHCKPAKPLPKEMEDFVQSSGENGVVVFSLGSMVSNMTEERANVIASALAQIPQKVLWRFDGNKPDTLGLNTRLYKWIPQNDLLGHPKTRAFITHGGANGIYEAIYHGIPMVGIPLFADQPDNIAHMKARGAAVRVDFNTMSSTDLLNALKRVINDPSYKENVMKLSRIQHDQPVKPLDRAVFWIEFVMRHKGAKHLRVAAHDLTWFQYHSLDVIGFLLVCVATVIFIVTKCCLFCFWKFARKAKKGKND
Turning to B2, the Km in [7] turned out to be 333 µM; in [8], 64 µM; in series [9] it was 203 µM; in [10], 24 µM; in series [11] it was 260 µM; in series [12], 214 µM. For the same protein, the Michaelis constant (Km) in series [13] amounted to 449 µM; in series [14] it was 149 µM; in series [15], 42 µM; in [16], 21 µM; in series [17] it was 55 µM; in series [18], 112 µM. The Michaelis constant (Km) in series [19] came to 14 µM; in series [20], 970 µM. In addition, the maximum rate (Vmax) in series [7] worked out at 7e-06 µmol/min/mg; in series [8], 0.00022 µmol/min/mg; in [9], 2e-06 µmol/min/mg; in series [10] it was 2.6e-05 µmol/min/mg; in series [11], 0.000461 µmol/min/mg; in series [12], 1e-06 µmol/min/mg. Moreover, the maximum rate (Vmax) stood at 0.000588 µmol/min/mg in series [13]; 9.9e-05 µmol/min/mg in series [14]; 4.7e-05 µmol/min/mg in [15]; 5e-05 µmol/min/mg in series [16]; 0.000477 µmol/min/mg in [17]; 0.00045 µmol/min/mg in series [18]. In addition, the values for the maximal velocity (Vmax) in series [19] and in series [20] were 0.00029 µmol/min/mg and 2.1e-05 µmol/min/mg, respectively.

B3: UDP-glucuronosyltransferase 1A9 (Homo sapiens) (protein)
chain: MACTGWTSPLPLCVCLLLTCGFAEAGKLLVVPMDGSHWFTMRSVVEKLILRGHEVVVVMPEVSWQLGRSLNCTVKTYSTSYTLEDLDREFKAFAHAQWKAQVRSIYSLLMGSYNDIFDLFFSNCRSLFKDKKLVEYLKESSFDAVFLDPFDNCGLIVAKYFSLPSVVFARGILCHYLEEGAQCPAPLSYVPRILLGFSDAMTFKERVRNHIMHLEEHLLCHRFFKNALEIASEILQTPVTEYDLYSHTSIWLLRTDFVLDYPKPVMPNMIFIGGINCHQGKPLPMEFEAYINASGEHGIVVFSLGSMVSEIPEKKAMAIADALGKIPQTVLWRYTGTRPSNLANNTILVKWLPQNDLLGHPMTRAFITHAGSHGVYESICNGVPMVMMPLFGDQMDNAKRMETKGAGVTLNVLEMTSEDLENALKAVINDKSYKENIMRLSSLHKDRPVEPLDLAVFWVEFVMRHKGAPHLRPAAHDLTWYQYHSLDVIGFLLAVVLTVAFITFKCCAYGYRKCLGKKGRVKKAHKSKTH
As for B3, the Michaelis constant (Km) amounted to 12 µM in [7]; 37 µM in series [1]; 37 µM in series [21]; 10 µM in series [22]; 25 µM in [23]; 20900 µM in series [24]. Moreover, the Km in [25] is 13 µM; in series [26], 66 µM; in [27] it was 37400 µM; in series [28], 13 µM; in [29], 1060 µM; in [30] it was 291 µM. Moreover, the Vmax in series [7] was determined as 3e-06 µmol/min/mg; in [1], 0.0028 µmol/min/mg; in series [21] it was 5.6e-05 µmol/min/mg; in [22], 0.0018 µmol/min/mg; in series [23] it was 0.00032 µmol/min/mg; in series [24] it was 0.0063 µmol/min/mg. Also, the Vmax is 0.00025 µmol/min/mg in [25]; 0.00048 µmol/min/mg in series [26]; 3.2e-05 µmol/min/mg in series [27]; 2e-05 µmol/min/mg in [28]; 9.2e-05 µmol/min/mg in series [29]; 0.00838 µmol/min/mg in series [30].

B4: UDP-glucuronosyltransferase 1A10 (Homo sapiens) (protein)
chain: MARAGWTSPVPLCVCLLLTCGFAEAGKLLVVPMDGSHWFTMQSVVEKLILRGHEVVVVMPEVSWQLERSLNCTVKTYSTSYTLEDQNREFMVFAHAQWKAQAQSIFSLLMSSSSGFLDLFFSHCRSLFNDRKLVEYLKESSFDAVFLDPFDTCGLIVAKYFSLPSVVFTRGIFCHHLEEGAQCPAPLSYVPNDLLGFSDAMTFKERVWNHIVHLEDHLFCQYLFRNALEIASEILQTPVTAYDLYSHTSIWLLRTDFVLDYPKPVMPNMIFIGGINCHQGKPLPMEFEAYINASGEHGIVVFSLGSMVSEIPEKKAMAIADALGKIPQTVLWRYTGTRPSNLANNTILVKWLPQNDLLGHPMTRAFITHAGSHGVYESICNGVPMVMMPLFGDQMDNAKRMETKGAGVTLNVLEMTSEDLENALKAVINDKSYKENIMRLSSLHKDRPVEPLDLAVFWVEFVMRHKGAPHLRPAAHDLTWYQYHSLDVIGFLLAVVLTVAFITFKCCAYGYRKCLGKKGRVKKAHKSKTH
For B4, the Km in series [31] was 5 µM; in [32] it was 12600 µM. The Vmax in [31] is 0.00055 µmol/min/mg; in series [32], 0.000629 µmol/min/mg.
